Substitutions are numbered along the chain they refer to.
Experiments:
hiR2-FL-I477M-T7 = molecular target: T1, hiR2-FL-I477M-T7 (human, UniProt Q6PJF5 1-856); assay: FACS, MEF-DKO cells, 3 µg/ml
T1 sequence: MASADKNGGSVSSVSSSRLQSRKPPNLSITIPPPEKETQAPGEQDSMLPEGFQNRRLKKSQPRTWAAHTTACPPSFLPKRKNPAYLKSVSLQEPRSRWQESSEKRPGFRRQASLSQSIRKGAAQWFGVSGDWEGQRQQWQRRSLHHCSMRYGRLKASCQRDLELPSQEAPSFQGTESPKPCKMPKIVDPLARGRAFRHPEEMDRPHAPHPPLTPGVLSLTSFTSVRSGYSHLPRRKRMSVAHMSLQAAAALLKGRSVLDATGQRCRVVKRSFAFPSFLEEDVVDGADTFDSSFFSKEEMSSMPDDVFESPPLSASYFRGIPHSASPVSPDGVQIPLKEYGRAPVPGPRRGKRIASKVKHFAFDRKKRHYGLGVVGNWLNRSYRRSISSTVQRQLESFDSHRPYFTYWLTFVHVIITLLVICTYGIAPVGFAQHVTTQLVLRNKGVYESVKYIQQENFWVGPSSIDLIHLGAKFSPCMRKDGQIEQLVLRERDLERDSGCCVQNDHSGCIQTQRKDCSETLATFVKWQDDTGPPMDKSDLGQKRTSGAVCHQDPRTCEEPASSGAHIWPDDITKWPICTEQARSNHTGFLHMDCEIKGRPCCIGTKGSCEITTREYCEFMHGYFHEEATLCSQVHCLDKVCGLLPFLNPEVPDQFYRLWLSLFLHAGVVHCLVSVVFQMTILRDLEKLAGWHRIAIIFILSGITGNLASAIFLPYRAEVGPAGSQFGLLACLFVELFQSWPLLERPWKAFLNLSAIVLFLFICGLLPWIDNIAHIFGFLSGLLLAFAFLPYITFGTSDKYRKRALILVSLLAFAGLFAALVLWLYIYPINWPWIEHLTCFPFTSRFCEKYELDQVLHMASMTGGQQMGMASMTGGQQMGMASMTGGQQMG
From the text: (§1) In brief, immortalized MEF-DKO-hiR2-FL-A431S-T7, MEF-DKO-hiR2-FL-V434E-T7, MEF-DKO-hiR2-FL-T436V-T7, MEF-DKO-hiR2-FL-Q437D-T7, MEF-DKO-hiR2-FL-L438S-T7, MEF-DKO-hiR2-FL-S448N-T7, MEF-DKO-hiR2-FL-I452V-T7, MEF-DKO-hiR2-FL-I464E-T7, MEF-DKO-hiR2-FL-D465A-T7, MEF-DKO-hiR2-FL-I477M-T7, MEF-DKO-hiR2-FL-K479Q-T7, MEF-DKO-hiR2-FL-G481P-T7, MEF-DKO-hiR2-FL-I483V-T7, MEF-DKO-hiR2-FL-E484H-T7, MEF-DKO-hiR2-FL-Q485S-T7, MEF-DKO-hiR2-FL-L486F-T7, MEF-DKO-hiR2-FL-V487I-T7, MEF-DKO-hiR2-FL-R489S-T7, MEF-DKO-hiR2-FL-E490A-T7, MEF-DKO-hiR2-FL-D492E-T7, MEF-DKO-hiR2-FL-L493R-T7, MEF-DKO-hiR2-FL-R495K-T7 and MEF-DKO-hiR2-FL-D496H-T7 cells were harvested with 10 mM EDTA in PBS, washed and resuspended in FACS buffer (PBS, 3% FBS, 0.05% sodium azide), and seeded in Nunc U-bottom 96-well plates (Thermo Fisher Scientific, USA) at approximately 1×10⁵ cells per well. To pellet cells and remove supernatants, the plates were centrifuged at 1,500 rpm and 4° C. for 3 minutes. For primary staining, cells were resuspended in 100 μl per well of either FACS buffer alone (controls) or the purified antibodies 3, 5, 16, 22, 34, 42, 43, 44, 48, and 50 of the invention at 3 μg/ml in FACS buffer and incubated on ice for 1 hour. Afterwards, plates were centrifuged at 1,500 rpm and 4° C. for 3 minutes and washed twice with 200 μl per well of FACS buffer. For secondary staining, cells were spun down and resuspended in 100 μl per well of PE-conjugated goat anti-mouse IgG F(ab′)2 detection fragment (Dianova, Germany) diluted 1:100 in FACS buffer. Protected from light, the cell suspensions were incubated on ice for 1 hour. Plates were then centrifuged at 1,500 rpm and 4° C. for 3 minutes and washed three times with 200 μl per well of FACS buffer. Finally, cells were resuspended in 150 μl per well of FACS buffer and analyzed using a BD Accuri™ C6 Plus flow cytometer (Becton Dickinson, Germany).

hiR2-FL-I483V-T7 = molecular target: T2, hiR2-FL-I483V-T7 (human, UniProt Q6PJF5 1-856); assay: FACS, MEF-DKO cells, 3 µg/ml
T2 sequence: T1 sequence with M477I, I483V
From the text: as §1

B1: antibody 48 (antibody, V domains shown)
VH: QVQLQQSGTELVRPGTSVKVSCKASGYAFTNYLIEWVKQRPGQGLEWIGVINPGSGFTKYNEKFKGKATLTADKSSSTVYMHLSSLTSEDSAVYFCARGLYRAMDYWGQGTSVTVSS
VL: DIQMTQSPASQSASLGESVTITCLASQTIATWLAWYQQKPGKSPQLLIYGATTLADGVPSRFSGGGSGTKFSFKISSLQAEDFVSYYCQQLYSTPYTFGGGTKLEIK
notes: mouse IgG, kappa light chain; also called clone #48; purified antibody 48
loss of binding vs wild type (hiR2-FL-I477M-T7): ≥ 30%
loss of binding vs wild type (hiR2-FL-I483V-T7): ≥ 30%

B2: antibody 50 (antibody, V domains shown)
VH: B1 VH with T9A, T16A, T30S, V79A, H82Q
VL: B1 VL with A30G, G50A, T52A, T53S, S85N, L91I
notes: mouse IgG, kappa light chain; also called clone #50; purified antibody 50
loss of binding vs wild type (hiR2-FL-I477M-T7): ≥ 30%
loss of binding vs wild type (hiR2-FL-I483V-T7): ≥ 30%

From patent publication US20240287172A1 (SCIRHOM, published 2024)
